Results published in patent US20170042979A1.

Molecular target: soluble form of cation-independent mannose-6-phosphate receptor (lacking the membrane anchor sequence)
Assay: SPR (Biacore), soluble CIMPR immobilised on dextran chip, analyte flowed at 20 µL/min, RU after 3 min less control cell

fold higher concentration needed for the same change in RU, against unmodified α-galactosidase: 10 fold
Substance: α-galactosidase conjugated to 10 kDa 4-arm dendrimer (star) hydrazide PEG (Hz4PEG), prepared with 10% w/v PEG (from UniProt P06280 32-429) (enzyme)
